The text below walks through data of paper PMC8406418 (2021).

In this assay the target is T1, kappa-opioid receptor (KOR-EGFP) (Mus musculus, UniProt P33534).
T1 chain: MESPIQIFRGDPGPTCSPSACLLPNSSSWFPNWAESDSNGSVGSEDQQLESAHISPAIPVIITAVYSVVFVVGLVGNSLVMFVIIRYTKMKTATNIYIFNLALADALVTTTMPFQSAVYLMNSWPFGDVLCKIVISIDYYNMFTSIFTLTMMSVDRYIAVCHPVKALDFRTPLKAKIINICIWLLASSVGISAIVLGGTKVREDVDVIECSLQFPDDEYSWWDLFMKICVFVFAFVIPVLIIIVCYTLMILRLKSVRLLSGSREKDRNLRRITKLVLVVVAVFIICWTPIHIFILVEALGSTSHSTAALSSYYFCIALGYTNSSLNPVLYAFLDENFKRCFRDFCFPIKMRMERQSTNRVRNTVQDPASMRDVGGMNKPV
Nature of the assay: radioligand displacement ([3H]-diprenorphine).

B1: dynorphin A1-13 1-13 (peptide)
chain: MAWQGLVLAACLL
For the molecule B1, affinity was put at a Ki of 0.3 nM.
